Source: publication PMC5777247, “Cohesin SA2 is a sequence-independent DNA-binding protein that recognizes DNA replication and repair intermediates”

B1: ss66 (Alexa ss66) (ssDNA)
DNA: CTGGATCCGTACAGTGTAAGGGTGAGTGGTTGGGTGTGTGGGTGTTGATGTAGAACAAGAATTCGA
B2: ds25 (Alexa ss25 + ss-25-com) (dsDNA)
DNA 1: TGTCGCATAGTGTAGTCGGTCTTGT
DNA 2: ACAAGACCGACTACACTATGCGACA

Key:
SA2 1-1051 = target: T1, SA2 1-1051 (human, UniProt Q8N3U4 1-1051); test: fluorescence anisotropy; Anisotropy: 20 mM Hepes pH 7.5, 0.1 mM MgCl2, 0.5 mM DTT, 100 mM KCl, 1 nM DNA; AFM: 20 mM Hepes pH 7.5, 100 mM KCl, 0.1 mM MgCl2, room temperature, 20 min; settings: protein: recombinant; tags: 6xHis; label: Alexa 488
T1 sequence: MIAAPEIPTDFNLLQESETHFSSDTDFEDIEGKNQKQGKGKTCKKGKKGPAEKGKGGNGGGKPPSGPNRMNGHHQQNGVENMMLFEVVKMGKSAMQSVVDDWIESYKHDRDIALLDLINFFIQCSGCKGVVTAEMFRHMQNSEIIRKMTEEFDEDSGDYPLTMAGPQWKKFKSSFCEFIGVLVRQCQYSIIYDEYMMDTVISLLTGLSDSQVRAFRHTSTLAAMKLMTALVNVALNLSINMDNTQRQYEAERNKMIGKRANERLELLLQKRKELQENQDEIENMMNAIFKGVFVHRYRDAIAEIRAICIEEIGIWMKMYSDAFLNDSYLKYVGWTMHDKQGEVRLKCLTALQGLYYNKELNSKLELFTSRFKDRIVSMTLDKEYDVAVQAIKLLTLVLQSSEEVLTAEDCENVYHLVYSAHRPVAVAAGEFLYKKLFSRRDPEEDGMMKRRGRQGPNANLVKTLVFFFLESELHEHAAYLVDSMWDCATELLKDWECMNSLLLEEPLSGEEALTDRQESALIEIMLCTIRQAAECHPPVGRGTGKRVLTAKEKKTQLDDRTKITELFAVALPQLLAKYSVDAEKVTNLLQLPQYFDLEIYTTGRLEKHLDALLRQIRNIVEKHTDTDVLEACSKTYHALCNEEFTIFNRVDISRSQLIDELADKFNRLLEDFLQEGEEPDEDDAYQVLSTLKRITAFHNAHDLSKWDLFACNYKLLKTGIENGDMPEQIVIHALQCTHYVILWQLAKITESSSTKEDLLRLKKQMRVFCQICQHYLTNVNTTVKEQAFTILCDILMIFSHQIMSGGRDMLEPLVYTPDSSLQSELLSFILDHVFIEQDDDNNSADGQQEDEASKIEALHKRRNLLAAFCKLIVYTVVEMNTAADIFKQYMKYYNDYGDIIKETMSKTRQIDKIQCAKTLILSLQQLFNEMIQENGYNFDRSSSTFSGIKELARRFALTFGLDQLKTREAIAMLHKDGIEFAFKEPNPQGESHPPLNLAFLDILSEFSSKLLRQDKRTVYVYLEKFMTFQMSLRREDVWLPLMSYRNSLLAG

SA2 (STAG2), full length [1] = target: T2, SA2 (STAG2), full length (human, UniProt Q8N3U4 1-1231); test: as above; settings: protein: recombinant; tags: 6xHis; label: Alexa 488
T2 sequence: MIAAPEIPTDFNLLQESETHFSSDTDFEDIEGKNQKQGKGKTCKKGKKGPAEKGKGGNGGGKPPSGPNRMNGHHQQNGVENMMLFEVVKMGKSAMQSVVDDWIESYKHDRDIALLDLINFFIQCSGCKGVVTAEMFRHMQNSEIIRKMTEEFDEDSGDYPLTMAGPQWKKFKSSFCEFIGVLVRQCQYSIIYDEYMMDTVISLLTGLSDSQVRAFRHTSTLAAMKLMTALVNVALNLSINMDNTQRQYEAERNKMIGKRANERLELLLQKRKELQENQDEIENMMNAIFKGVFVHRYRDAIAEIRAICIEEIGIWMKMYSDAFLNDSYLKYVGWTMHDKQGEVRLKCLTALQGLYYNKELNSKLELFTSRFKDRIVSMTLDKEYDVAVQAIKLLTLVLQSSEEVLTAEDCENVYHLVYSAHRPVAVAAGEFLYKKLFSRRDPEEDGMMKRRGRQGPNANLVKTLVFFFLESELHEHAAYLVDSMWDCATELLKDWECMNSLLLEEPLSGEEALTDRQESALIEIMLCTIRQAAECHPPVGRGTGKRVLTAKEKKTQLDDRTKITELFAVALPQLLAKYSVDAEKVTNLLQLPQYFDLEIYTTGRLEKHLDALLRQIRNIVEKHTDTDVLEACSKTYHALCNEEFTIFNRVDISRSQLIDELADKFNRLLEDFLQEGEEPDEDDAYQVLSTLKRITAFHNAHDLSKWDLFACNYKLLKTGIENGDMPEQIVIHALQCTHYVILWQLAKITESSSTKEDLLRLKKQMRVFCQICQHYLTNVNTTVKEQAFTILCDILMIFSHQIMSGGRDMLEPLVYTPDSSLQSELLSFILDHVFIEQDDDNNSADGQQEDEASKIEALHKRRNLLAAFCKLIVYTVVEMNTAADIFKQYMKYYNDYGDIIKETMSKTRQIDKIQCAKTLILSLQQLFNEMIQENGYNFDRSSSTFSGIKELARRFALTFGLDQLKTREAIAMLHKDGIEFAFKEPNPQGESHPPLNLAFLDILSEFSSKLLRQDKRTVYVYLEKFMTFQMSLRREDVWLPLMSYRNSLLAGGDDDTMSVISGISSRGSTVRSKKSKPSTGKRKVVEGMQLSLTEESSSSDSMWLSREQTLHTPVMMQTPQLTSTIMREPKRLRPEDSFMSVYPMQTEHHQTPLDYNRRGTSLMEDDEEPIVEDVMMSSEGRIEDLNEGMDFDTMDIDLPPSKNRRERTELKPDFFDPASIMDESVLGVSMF

SA1 (STAG1), full length = target: T3, SA1 (STAG1), full length (UniProt Q8WVM7 1-1258); test: as above; settings: protein: recombinant; label: Alexa 488
T3 sequence: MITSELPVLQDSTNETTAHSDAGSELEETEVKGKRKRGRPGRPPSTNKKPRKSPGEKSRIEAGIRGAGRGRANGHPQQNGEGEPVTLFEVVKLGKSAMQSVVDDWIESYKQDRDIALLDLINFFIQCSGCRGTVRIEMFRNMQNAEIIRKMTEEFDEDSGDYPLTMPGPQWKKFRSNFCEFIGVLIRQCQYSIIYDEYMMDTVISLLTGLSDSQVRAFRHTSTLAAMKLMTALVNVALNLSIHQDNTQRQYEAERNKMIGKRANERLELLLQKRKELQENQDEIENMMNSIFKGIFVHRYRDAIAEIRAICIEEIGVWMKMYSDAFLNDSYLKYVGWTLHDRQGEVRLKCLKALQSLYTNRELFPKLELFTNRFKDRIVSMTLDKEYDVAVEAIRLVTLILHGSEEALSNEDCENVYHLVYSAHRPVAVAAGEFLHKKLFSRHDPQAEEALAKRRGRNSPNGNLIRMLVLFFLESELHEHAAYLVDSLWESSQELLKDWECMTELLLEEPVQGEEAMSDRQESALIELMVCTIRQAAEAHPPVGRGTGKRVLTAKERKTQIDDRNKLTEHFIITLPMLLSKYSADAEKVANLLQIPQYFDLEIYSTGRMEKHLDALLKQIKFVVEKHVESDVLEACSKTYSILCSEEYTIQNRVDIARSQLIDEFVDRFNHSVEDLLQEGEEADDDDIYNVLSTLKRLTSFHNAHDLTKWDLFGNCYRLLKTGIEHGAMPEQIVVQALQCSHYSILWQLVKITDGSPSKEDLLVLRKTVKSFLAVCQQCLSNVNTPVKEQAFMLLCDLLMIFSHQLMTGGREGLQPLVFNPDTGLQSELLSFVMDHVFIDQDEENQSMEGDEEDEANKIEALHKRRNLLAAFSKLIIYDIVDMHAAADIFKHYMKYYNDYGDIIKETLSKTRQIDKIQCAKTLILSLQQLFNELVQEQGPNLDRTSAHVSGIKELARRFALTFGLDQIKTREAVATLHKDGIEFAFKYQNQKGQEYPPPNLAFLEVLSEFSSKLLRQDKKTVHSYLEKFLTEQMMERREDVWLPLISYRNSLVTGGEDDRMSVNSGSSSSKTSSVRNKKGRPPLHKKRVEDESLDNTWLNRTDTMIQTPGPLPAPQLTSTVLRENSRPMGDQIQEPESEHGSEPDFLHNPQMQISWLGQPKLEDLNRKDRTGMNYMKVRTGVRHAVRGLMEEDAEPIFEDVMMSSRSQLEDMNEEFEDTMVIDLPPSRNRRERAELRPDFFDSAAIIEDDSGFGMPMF

SA2 (STAG2), full length [2] = target: T2, SA2 (STAG2), full length; test: fluorescence anisotropy; no detectable binding (ND); Anisotropy: 20 mM Hepes pH 7.5, 0.1 mM MgCl2, 0.5 mM DTT, 100 mM KCl, 1 nM DNA; AFM: 20 mM Hepes pH 7.5, 100 mM KCl, 0.1 mM MgCl2, room temperature, 20 min; settings: protein: recombinant; tags: 6xHis; label: 5' Alexa 488 on strand 1; blunt

Row | Binder | Kd (SA2 1-1051) [nM] | Kd (SA2 (STAG2), full length [1]) [nM] | Kd (SA1 (STAG1), full length) [nM] | binding result (SA2 (STAG2), full length [2])
1 | B1 | 28 | 41 ± 5.3 | 36.5 ± 0.2 | –
2 | B2 | – | – | – | no binding
